From PMC7534926 (The Journal of Cell Biology, 2020)
No end group written: not given here. *: point of attachment. Biotin = O=C1N[C@H]2[C@H](CS[C@H]2CCCCC(=O)*)N1

Legend:
[1] = molecular target: endogenous delta-catenin of rat hippocampal neurons (rat (endogenous in primary hippocampal neurons)) (UniProt O35116); test: proximity ligation
[2] = molecular target: Pdlim5 PDZ domain (UniProt Q96HC4); test: PDZ-domain microarray probed with biotinylated peptide
[3] = molecular target: Erbin PDZ domain (UniProt Q96RT1); test: as above; conditions: reference: unphosphorylated peptide; sites S1242,S1245
[4] = molecular target: Pdlim5 (UniProt Q62920); test: proximity ligation assay; conditions: reference: no treatment; sites S1242
[5] = molecular target: Magi1 (UniProt Q4L1J4); test: proximity ligation assay; conditions: reference: no treatment; sites S1242
[6] = molecular target: GST fusion of the PDZ domain of Erbin (array) (human, UniProt Q96RT1 1321-1410); test: peptide or protein array
Chain of GST fusion of the PDZ domain of Erbin (array) (Q96RT1 1321-1410): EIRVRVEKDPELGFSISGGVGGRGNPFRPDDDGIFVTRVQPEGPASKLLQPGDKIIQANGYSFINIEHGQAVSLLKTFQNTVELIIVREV

Chain of endogenous delta-catenin of rat hippocampal neurons (rat (endogenous in primary hippocampal neurons)) (O35116 whole entry, stated change not applied, the tested form may be a part): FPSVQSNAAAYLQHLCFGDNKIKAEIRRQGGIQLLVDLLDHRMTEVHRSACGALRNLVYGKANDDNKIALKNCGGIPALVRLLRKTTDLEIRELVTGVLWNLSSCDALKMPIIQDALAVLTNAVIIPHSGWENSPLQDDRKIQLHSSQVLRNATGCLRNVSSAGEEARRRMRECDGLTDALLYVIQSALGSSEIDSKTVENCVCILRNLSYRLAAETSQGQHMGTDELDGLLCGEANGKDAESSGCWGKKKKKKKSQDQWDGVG
Chain of Magi1 (Q4L1J4 whole entry, looked up, the tested form may be a part): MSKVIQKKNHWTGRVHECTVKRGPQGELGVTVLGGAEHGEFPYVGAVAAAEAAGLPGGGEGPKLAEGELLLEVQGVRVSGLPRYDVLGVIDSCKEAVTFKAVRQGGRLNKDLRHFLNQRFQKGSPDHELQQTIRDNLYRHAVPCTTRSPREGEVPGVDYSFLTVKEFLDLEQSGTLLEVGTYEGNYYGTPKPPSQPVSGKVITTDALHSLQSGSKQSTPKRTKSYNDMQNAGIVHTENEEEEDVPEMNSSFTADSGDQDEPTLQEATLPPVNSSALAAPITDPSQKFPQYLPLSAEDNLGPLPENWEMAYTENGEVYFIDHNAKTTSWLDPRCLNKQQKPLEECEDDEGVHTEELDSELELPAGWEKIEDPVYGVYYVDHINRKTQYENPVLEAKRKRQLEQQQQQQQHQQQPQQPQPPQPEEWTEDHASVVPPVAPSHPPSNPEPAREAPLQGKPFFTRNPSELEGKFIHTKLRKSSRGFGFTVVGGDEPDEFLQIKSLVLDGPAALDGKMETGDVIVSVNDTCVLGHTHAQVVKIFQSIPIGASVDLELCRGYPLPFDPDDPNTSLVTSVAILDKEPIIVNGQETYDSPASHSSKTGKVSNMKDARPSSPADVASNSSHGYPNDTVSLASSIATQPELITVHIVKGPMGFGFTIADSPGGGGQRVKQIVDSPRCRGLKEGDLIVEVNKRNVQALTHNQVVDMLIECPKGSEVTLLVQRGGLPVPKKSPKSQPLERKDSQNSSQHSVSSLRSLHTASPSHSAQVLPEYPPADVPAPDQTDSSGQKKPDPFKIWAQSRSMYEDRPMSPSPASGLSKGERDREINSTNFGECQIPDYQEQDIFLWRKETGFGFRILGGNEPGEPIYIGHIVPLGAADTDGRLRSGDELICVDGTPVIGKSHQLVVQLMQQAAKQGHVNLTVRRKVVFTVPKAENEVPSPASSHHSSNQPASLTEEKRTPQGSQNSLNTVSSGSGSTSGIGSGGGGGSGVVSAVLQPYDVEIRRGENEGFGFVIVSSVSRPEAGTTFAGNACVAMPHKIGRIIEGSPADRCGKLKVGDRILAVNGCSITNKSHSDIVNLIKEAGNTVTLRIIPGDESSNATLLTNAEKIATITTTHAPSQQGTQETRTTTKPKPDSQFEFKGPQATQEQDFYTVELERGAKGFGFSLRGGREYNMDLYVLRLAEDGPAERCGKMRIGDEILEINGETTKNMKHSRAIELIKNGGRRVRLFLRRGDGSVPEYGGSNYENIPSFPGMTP

Row | Molecule | PLA puncta per cell (20 µM DHPG, 10 min) [1] | PLA puncta per cell (no treatment) [1] | PLA puncta per neuron (puncta per neuron) [1] | also measured
1 | endogenous Magi1 of rat hippocampal neurons (from UniProt Q4L1J4 1-1255) (natural protein) | 8.95 puncta/cell | 21.1 puncta/cell | 16 | –
2 | delta-catenin C-terminal PDZ-binding motif (from UniProt O35927) pS1242 + pS1245 peptide | – | – | – | binding against the reference ([2]; reference: pS1242-only peptide, sites S1245): stronger; binding against the reference ([2]; reference: pS1245-only peptide, sites S1242): stronger
3 | delta-catenin C-terminal PDZ-binding motif (from UniProt O35927) phosphorylated peptide (doubly phosphorylated probe assumed) | – | – | – | binding against the reference [3]: same
4 | delta-catenin 20 µM DHPG, 10 min | – | – | – | other: PLA puncta per cell [4]: stronger; reference 20.46 ± 1.41; other: PLA puncta per cell [5]: weaker; reference 21.15 ± 7.24
5 | endogenous Pdlim5 of rat hippocampal neurons (natural protein) MSNYNVSLVGPAPWGFRLQGGKDFNMPLTISSLKDGGKASQAHVRIGDVVLSIDGISAQGMTHLEAQNKIKACTGSLNMTLQRASAAAKSEPVAVQKGEPKEVVKPVPITSPAVSKVTSTTNMAYNKVPRPFGSVSSPKVTSIPSPSSAFTPAHAATSSHASPPPVAAVTPPPLSASGLHASANPSAAQCSSPPNTGKPAVHVPRQPTVTSVCSESAQELAEGQRRGSQGDIKQQNGPPRKHIVERNTEFYHIPTHSDASKKRLIEDTEDWRPRTGTTQSRSFRILAQITGTEHLKESENDNAKKANSTPEPSQQSASPLSAAESLESPGSNRPVVAGLRSAAAFKPVGSTSVKSPSWQRPNQAAPSTGRISNSASSSGTGAPMKPAVGPPQPSDQDTLVQRAEHIPAGKRTPMCAHCNQAIRGPFLVALGKSWHPEEFNCAHCKNTMAYIGFVEEKGALYCELCYEKFFAPECGRCQRKILGEVINALKQTWHVSCFVCVACGKPIRNNVFHLEDGEPYCETDYYALFGTICRGCEFPIEAGDMFLEALGSTWHDTCFVCSVCCESLEGQTFFSKKDKPLCKKHAHSVNF | 54.2 puncta/cell | 20.5 puncta/cell | 37.7 | –
6 | Biotin-TSHYPASPDSWV [delta-catenin PDZ-binding motif peptide, De-Phospho (Biotin-TSHYPASPDSWV)] | – | – | – | binding result [6]: binds
